Measured values: patent US20250073311A1, “DOSAGE REGIME” (ZEALAND PHARMA A/S, priority 2021, published 2025)
Numbered stars: 1 amine (or outer) side, 2 acyl side, 3 side chain; on linkers, the order of the positions; unused ones are H or OH. Square brackets hold non-standard residues; d marks the D form. Side chains are listed from the residue outwards. Ends that are not written are not given here. Peptide text beside a SMILES is read from it. * marks the point of attachment. C20 diacid = O=C(O)CCCCCCCCCCCCCCCCCCC(=O)*; C18 diacid = O=C(O)CCCCCCCCCCCCCCCCC(=O)*; γGlu = O=C(O)[C@H](CCC(=O)[*:2])N[*:1]; AEEA = NCCOCCOCC(=O)O; Aib = CC(C)(N)C(=O)O

B1: Compound 46 (peptide)
peptide: H-H[Aib]EGTFTSELATILDEQAAK([AEEA-AEEA-γGlu-C20 diacid])DFIAWLIEHKITD-OH
SMILES: CC[C@H](C)[C@H](NC(=O)[C@H](Cc1ccccc1)NC(=O)[C@H](CC(=O)O)NC(=O)[C@H](CCCCNC(=O)COCCOCCNC(=O)COCCOCCNC(=O)CC[C@H](NC(=O)CCCCCCCCCCCCCCCCCCC(=O)O)C(=O)O)NC(=O)[C@H](C)NC(=O)[C@H](C)NC(=O)[C@H](CCC(N)=O)NC(=O)[C@H](CCC(=O)O)NC(=O)[C@H](CC(=O)O)NC(=O)[C@H](CC(C)C)NC(=O)[C@@H](NC(=O)[C@@H](NC(=O)[C@H](C)NC(=O)[C@H](CC(C)C)NC(=O)[C@H](CCC(=O)O)NC(=O)[C@H](CO)NC(=O)[C@@H](NC(=O)[C@H](Cc1ccccc1)NC(=O)[C@@H](NC(=O)CNC(=O)[C@H](CCC(=O)O)NC(=O)C(C)(C)NC(=O)[C@@H](N)Cc1c[nH]cn1)[C@@H](C)O)[C@@H](C)O)[C@@H](C)O)[C@@H](C)CC)C(=O)N[C@@H](C)C(=O)N[C@@H](Cc1c[nH]c2ccccc12)C(=O)N[C@@H](CC(C)C)C(=O)N[C@H](C(=O)N[C@@H](CCC(=O)O)C(=O)N[C@@H](Cc1c[nH]cn1)C(=O)N[C@@H](CCCCN)C(=O)N[C@H](C(=O)N[C@H](C(=O)N[C@@H](CC(=O)O)C(=O)O)[C@@H](C)O)[C@@H](C)CC)[C@@H](C)CC
B2: Compound 44 (peptide)
peptide: H-H[Aib]EGSFTSELATILEGK([AEEA-AEEA-γGlu-C20 diacid])AARDFIAWLIEHKITD-OH
SMILES: CC[C@H](C)[C@H](NC(=O)[C@H](Cc1ccccc1)NC(=O)[C@H](CC(=O)O)NC(=O)[C@H](CCCNC(=N)N)NC(=O)[C@H](C)NC(=O)[C@H](C)NC(=O)[C@H](CCCCNC(=O)COCCOCCNC(=O)COCCOCCNC(=O)CC[C@H](NC(=O)CCCCCCCCCCCCCCCCCCC(=O)O)C(=O)O)NC(=O)CNC(=O)[C@H](CCC(=O)O)NC(=O)[C@H](CC(C)C)NC(=O)[C@@H](NC(=O)[C@@H](NC(=O)[C@H](C)NC(=O)[C@H](CC(C)C)NC(=O)[C@H](CCC(=O)O)NC(=O)[C@H](CO)NC(=O)[C@@H](NC(=O)[C@H](Cc1ccccc1)NC(=O)[C@H](CO)NC(=O)CNC(=O)[C@H](CCC(=O)O)NC(=O)C(C)(C)NC(=O)[C@@H](N)Cc1c[nH]cn1)[C@@H](C)O)[C@@H](C)O)[C@@H](C)CC)C(=O)N[C@@H](C)C(=O)N[C@@H](Cc1c[nH]c2ccccc12)C(=O)N[C@@H](CC(C)C)C(=O)N[C@H](C(=O)N[C@@H](CCC(=O)O)C(=O)N[C@@H](Cc1c[nH]cn1)C(=O)N[C@@H](CCCCN)C(=O)N[C@H](C(=O)N[C@H](C(=O)N[C@@H](CC(=O)O)C(=O)O)[C@@H](C)O)[C@@H](C)CC)[C@@H](C)CC
B3: Compound 43 (peptide)
peptide: H-H[Aib]EGSFTSELATILDK([AEEA-AEEA-γGlu-C20 diacid])KAARDFIAWLIEHKITD-OH
SMILES: CC[C@H](C)[C@H](NC(=O)[C@H](Cc1ccccc1)NC(=O)[C@H](CC(=O)O)NC(=O)[C@H](CCCNC(=N)N)NC(=O)[C@H](C)NC(=O)[C@H](C)NC(=O)[C@H](CCCCN)NC(=O)[C@H](CCCCNC(=O)COCCOCCNC(=O)COCCOCCNC(=O)CC[C@H](NC(=O)CCCCCCCCCCCCCCCCCCC(=O)O)C(=O)O)NC(=O)[C@H](CC(=O)O)NC(=O)[C@H](CC(C)C)NC(=O)[C@@H](NC(=O)[C@@H](NC(=O)[C@H](C)NC(=O)[C@H](CC(C)C)NC(=O)[C@H](CCC(=O)O)NC(=O)[C@H](CO)NC(=O)[C@@H](NC(=O)[C@H](Cc1ccccc1)NC(=O)[C@H](CO)NC(=O)CNC(=O)[C@H](CCC(=O)O)NC(=O)C(C)(C)NC(=O)[C@@H](N)Cc1c[nH]cn1)[C@@H](C)O)[C@@H](C)O)[C@@H](C)CC)C(=O)N[C@@H](C)C(=O)N[C@@H](Cc1c[nH]c2ccccc12)C(=O)N[C@@H](CC(C)C)C(=O)N[C@H](C(=O)N[C@@H](CCC(=O)O)C(=O)N[C@@H](Cc1c[nH]cn1)C(=O)N[C@@H](CCCCN)C(=O)N[C@H](C(=O)N[C@H](C(=O)N[C@@H](CC(=O)O)C(=O)O)[C@@H](C)O)[C@@H](C)CC)[C@@H](C)CC
B4: Compound 42 (peptide)
peptide: H-H[Aib]EGSFTSEK([AEEA-AEEA-γGlu-C20 diacid])ATILDEQAARDFIAWLIEHKITD-OH
B5: Compound 45 (peptide)
peptide: H-H[Aib]EGSFTSELATILDEQAAK([AEEA-AEEA-γGlu-C20 diacid])DFIAWLIEHKITD-OH
B6: reference compound B (peptide)
chain: H[Aib]EGSFSSELATILDK([γGlu-C18 diacid])QAARDFIAWLIQHKITD
modifications: ends and bridges not checked
B7: reference compound A (peptide)
chain: H[Aib]DGSFSSELATILDK([γGlu-C18 diacid])QAARDFIAWLIQHKITD
modifications: ends and bridges not checked

Molecular target: T1, human GLP-2 receptor (hGLP2-R) (human, UniProt O95838)
T1 sequence: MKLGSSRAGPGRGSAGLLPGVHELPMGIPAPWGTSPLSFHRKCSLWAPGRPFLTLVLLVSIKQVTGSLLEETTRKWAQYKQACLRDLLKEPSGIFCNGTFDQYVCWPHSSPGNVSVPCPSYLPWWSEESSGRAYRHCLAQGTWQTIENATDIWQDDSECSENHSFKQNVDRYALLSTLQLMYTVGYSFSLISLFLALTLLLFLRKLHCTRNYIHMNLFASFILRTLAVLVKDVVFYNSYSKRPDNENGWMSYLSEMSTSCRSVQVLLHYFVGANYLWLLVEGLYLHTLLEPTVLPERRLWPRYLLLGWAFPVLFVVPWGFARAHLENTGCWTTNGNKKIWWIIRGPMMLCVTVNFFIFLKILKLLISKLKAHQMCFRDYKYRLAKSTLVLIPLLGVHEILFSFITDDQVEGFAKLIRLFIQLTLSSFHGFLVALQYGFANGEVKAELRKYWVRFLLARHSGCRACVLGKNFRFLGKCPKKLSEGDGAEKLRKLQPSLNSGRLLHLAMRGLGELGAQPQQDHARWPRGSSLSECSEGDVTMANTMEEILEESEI
Assay: cell-based or functional assay
Details: not given

Molecule | EC50 GLP-2 (nM), cAMP AlphaScreen
B1 | 0.38 nM
B2 | 0.14 nM
B3 | 0.15 nM
B4 | 0.33 nM
B5 | 0.36 nM

Molecular target: human glucagon-like peptide 1 receptor (GLP-1R) (human, UniProt P43220)
Assay: cell-based or functional assay
Details: not given

Molecule | EC50 GLP-1 (nM), cAMP AlphaScreen
B1 | 0.26 nM
B2 | 0.063 nM
B3 | 0.096 nM
B4 | 0.067 nM
B5 | 1.4 nM

Molecular target: T2, human GLP-2 receptor (Homo sapiens, UniProt O95838, D470N)
T2 sequence (O95838 1-553 D470N): T1 sequence
Assay: GLP-2 receptor potency assay (cAMP AlphaScreen)
Assay type: cell-based
Details: HEK293 cells expressing human GLP-2R, cAMP response; N/A = no detectable activity
Source text: The hGLP2-R was purchased from MRC-geneservice, Babraham, Cambridge as an Image clone: 5363415 (11924-117). For subcloning into a mammalian expression vector, primers for subcloning were obtained from DNA-Technology, Risskov, Denmark. The 5′ and 3′ primers used for the PCR reaction include terminal restriction sites for cloning and the context of the 5′ primer is modified to a Kozak consensus without changing the sequence of the product encoded by the ORF. A standard PCR reaction was run using Image clone 5363415 (11924-117) as a template with the above mentioned primers and Polymerase Herculase II Fusion in a total vol. of 50 μl. The generated PCR product was purified using GFX PCR and Gel band purification kit, digested with restriction enzymes and cloned into the mammalian expression vector using Rapid DNA Ligation Kit. Ligation reaction was transformed to XL10 Gold Ultracompetent cells and colonies were picked for DNA production using Endofree Plasmid maxi kit. Subsequent sequence analysis was conducted by MWG Eurofins, Germany.
HEK293 cells were transfected using the Lipofectamine PLUS transfection method. The day before transfection, HEK293 cells were seeded in two T75 flasks at a density of 2×10^6 cells/T75 flask in cell culturing medium without antibiotics. […] Following 4 weeks in G418 selection, clones were picked and tested in a functional GLP-2 receptor potency assay as described below.
Data from test compounds eliciting an increase in the intracellular level of cAMP were normalized relative to the positive and negative control (vehicle) to calculate the EC50 and maximal response from the concentration response curve.

Molecule | EC50
CC[C@H](C)[C@H](NC(=O)[C@H](Cc1ccccc1)NC(=O)[C@H](CC(=O)O)NC(=O)[C@H](CCCNC(=N)N)NC(=O)[C@H](C)NC(=O)[C@H](C)NC(=O)[C@H](CCC(N)=O)NC(=O)[C@H](CCC(=O)O)NC(=O)[C@H](CC(=O)O)NC(=O)[C@H](CC(C)C)NC(=O)[C@@H](NC(=O)[C@@H](NC(=O)[C@H](C)NC(=O)[C@H](CCCCNC(=O)COCCOCCNC(=O)[C@H](CCCCN)NC(=O)[C@H](CCC(=O)O)NC(=O)[C@H](CCCCN)NC(=O)CC[C@H](NC(=O)CCCCCCCCCCCCCCCCCCC(=O)O)C(=O)O)NC(=O)[C@H](CCC(=O)O)NC(=O)[C@H](CO)NC(=O)[C@@H](NC(=O)[C@H](Cc1ccccc1)NC(=O)[C@H](CO)NC(=O)CNC(=O)[C@H](CCC(=O)O)NC(=O)C(C)(C)NC(=O)[C@@H](N)Cc1c[nH]cn1)[C@@H](C)O)[C@@H](C)O)[C@@H](C)CC)C(=O)N[C@@H](C)C(=O)N[C@@H](Cc1c[nH]c2ccccc12)C(=O)N[C@@H](CC(C)C)C(=O)N[C@H](C(=O)N[C@@H](CCC(=O)O)C(=O)N[C@@H](Cc1c[nH]cn1)C(=O)N[C@@H](CCCCN)C(=O)N[C@H](C(=O)N[C@H](C(=O)N[C@@H](CC(=O)O)C(=O)O)[C@@H](C)O)[C@@H](C)CC)[C@@H](C)CC [Compound 53] (H-H[Aib]EGSFTSEK([AEEA-Lys-Glu-Lys-γGlu-C20 diacid])ATILDEQAARDFIAWLIEHKITD-OH) | 0.24 nM

Molecular target: human glucagon-like peptide 1 receptor (GLP-1R) (human) (UniProt P43220)
Sequence (P43220 24-463): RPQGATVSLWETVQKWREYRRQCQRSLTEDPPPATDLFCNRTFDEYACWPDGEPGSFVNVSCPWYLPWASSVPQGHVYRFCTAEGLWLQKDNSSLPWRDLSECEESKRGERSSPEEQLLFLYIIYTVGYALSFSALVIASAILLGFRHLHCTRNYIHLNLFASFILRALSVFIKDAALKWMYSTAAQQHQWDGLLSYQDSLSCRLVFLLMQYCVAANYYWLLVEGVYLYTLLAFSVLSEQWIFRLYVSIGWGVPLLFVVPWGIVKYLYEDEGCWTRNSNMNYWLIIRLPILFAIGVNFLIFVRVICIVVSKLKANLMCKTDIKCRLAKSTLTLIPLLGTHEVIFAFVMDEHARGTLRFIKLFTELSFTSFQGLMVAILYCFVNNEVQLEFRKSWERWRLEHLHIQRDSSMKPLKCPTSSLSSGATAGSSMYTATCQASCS
Assay: not given
Details: not given

Molecule | EC50 GLP-1 (nM), cAMP AlphaScreen
B6 | 3.9 nM
B7 | 0.49 nM

Molecular target: human GLP-2 receptor (hGLP2-R) (human) (UniProt O95838)
Assay: not given
Details: not given

Molecule | EC50 GLP-2 (nM), cAMP AlphaScreen
B6 | 0.28 nM
B7 | 0.083 nM
